In the RNAGym collection of RNA variant scans (doi:10.1073/pnas.2313332121):

B1: TPR t1 (parent)
chain: GACCAAUCUGCCCUCAGAGCUCGAGAACAUCUUCGGAUGCAGAGGAGGCAGGCUUCGGUGGCGCGAUAGCGCCAACGUCCUCAACCUCCAAUGCAUCCCACCACAUGAUGAUGCCUGAAGAGCCUUGGUUUUUUG

Variants of: B1
Experiment: polymerase ribozyme fitness, log enrichment relative to wild type (log ratio); higher = more active; in vitro selection for triplet polymerase activity
Outline: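 Mutant libraries were PCR-built and transcribed for each subunit of a heterodimeric triplet polymerase ribozyme and selected for one round in triplicate at −7 °C, frozen, before gel excision of extended constructs and streptavidin-bead capture. Input and output libraries were Illumina-sequenced, keeping genotypes with ≥10 input reads and ≥1 read per output. Fitness is a logarithmic ratio of genotype to wild-type enrichment, in base 2, using inverse-variance-weighted replicate averages.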

Variant	polymerase ribozyme fitness (log ratio)
A5U U81A A90C U92C	-3.49
A6C G17C U87C	-3.71
A5U C31A G71A A84C C124A	-6.43
A5U C40A C115G G120A	-3.72
A5U G63U C102A	-3.19
A6C G42C	-1.69
A5U G48U	-1.69
A6G A24C C88G C102A A111U G122C U133G	-6.51
A5U G52C G61C U129A	-2.2
A6C C8A G60A U87A	-0.0712
A6G C13G A111C U112A	-1.87
A6C A41G C70U G117U	-7.14
A5U C12U U125A	-0.727
A5U C12U U78C C80U	-1.23
A5U C73A	-0.847
A6G C98U U125G	-3.71
A6G C13U G19U C56A	-3.79
A5U C56A	-0.829
A6G C31A C64U C89G C123G	-6.4
A6C C101A	-1.63
A5U C8G C20U C40A	-3.31
A5U G45A	-1.11
A5U G45U	-1.13
A6G C115A	0.525

Variant	polymerase ribozyme fitness (log ratio)
A5U C124A	2.04
A5U C22G A66U U112A U126G	-3.51
A6C A50C G127A G128U	-3.5
A5U C11A G58U C70U C101U	-2.57
A6G C8U C98G	-4.61
A6C A18U G47U U125G	-3.87
A6C C13A G48C C49G	-3.01
A5U C56A C102A U116C	-5.7
A6C G63A U87G C88A	-1.25
A5U C40G G71U U87G	-3.8
A5U G47C C62U G113C A118U	-4.96
A5U C72G G117A	-1.96
A6C A18U G52C C79U C89U C101U	-2.96
A6C C13G G17A A18G	-4.66
A5U G113C U125G U132A	-1.99
A5U C88G G117A G120C	-4.11
A6C G69U U78C	0.0885
A5U G71A C98U G127A G128U	-5.31
A5U A29C U78G C101U	-3.29
A6C U9C A46C C62U C82U	-0.79
A6G C11A U14A C28A G69U U78C	-3.37
A5U C72G	-0.174
A5U G71C	-2.73
A5U U9A G48U C49G C101A	-1.73

Variant	polymerase ribozyme fitness (log ratio)
A6G C12U G69C U112C C123A U131A	0.491
A6C C72G A108G C115U	-4.82
A6G C8G C12A C28A C56G U81C U112A	-4.51
A5U G42C U87A A91G	-1.35
A5U C72U G128U	-2.15
A5U U96A	-0.893
A6C A43G U78G A91G	-2.53
A5U G10A G17C	-4.03
A5U G17A C49A G60A C89U	-5.58
A6G C11U G48C C64U G113A G117A	-7.08
A6C G61U U92C U129C	-2.43
A6C C73U C85A C114U	-3.29
A5U U129A	-1.34
A6C A50U C76G U96G	-2.15
A5U A83C	-0.98
A6C C20A A26C G60A U116C U132C	-7.63
A5U G61U	-0.313
A5U G120U	0.128
A5U G63U G65C C80U C85U A95G C97U C115U	-6.48
A6C G48U C53U U59G C70U A90C	-4.07
A5U G51A	-3.23
A6C U30G G63A A91U A100G C104G U109G	-5.44
A5U A41U G61A C82G G120A U125G	-2.7
A5U G52U U112G	-0.382

Variant	polymerase ribozyme fitness (log ratio)
A5U A27U	-3.65
A5U C64G C88G C104A A121G	-7.55
A5U U33C	-3.68
A5U C53A C72U C104U G113C	-2.38
A6G C40U C56U G127C	-1.94
A5U C22A	-3.71
A6C G44U C64U U96A C104A	-3.82
A5U C53A C62A G110U U130C	-4.41
A6C G48U U87C G110U	-2
A6G C12U G58A G113C	-1.75
A5U G25U C53U G69C C94U	-7.17
A6C A46U C56U	-1.22
A6C C40G C56G	-2.36
A5U U92C	-1.56
A6G A41G A50G C70U	-0.773
A6C U30G G61U A84C U112A	-3.92
A5U G57A	-0.568
A5U C86G	-1.26
A6C A18C C49U C70U C82U	-5.19
A6G C11G C13G C99A C102U	-5.35
A6C G63U	-1.03
A5U G19A G57U U78G G113U G135U	-4.71
A6C G71C C79U	-0.784
A6G C11G A118U	0.0523

Variant	polymerase ribozyme fitness (log ratio)
A5U C114A G122U	-1.76
A5U C15A	-2.36
A6C C72G U87A U112A G113U G117C U130G	-5.39
A6G A18C U54C	-2.19
A5U A95U	-1.24
A6C C94U U106A G113C U126C U133G	-4.12
A5U U112G	-0.587
A5U C12U G71U C114A G128A	-4.71
A5U U32C C124G G128U	-0.425
A6C C79A	-0.901
A5U G45C G60A	-0.71
A5U C88G G120C	0.286
A5U C11G A16U G60U U87A A103C	-5.47
A6G C64U	0.116
A6G C72G C88U	-0.419
A6G A74U C76U C115A	-0.102
A5U G63U A75U	-0.67
A6C G19A A41C C70A	-4.25
A5U C70A C97U U125A	-2.48
A6G C11A C34A G47A A111C	-5.04
A5U C15U A16U U125A	-4.8
A6G C11G G52U U59A G60C	-0.455
A5U C31U G110C	-6.73
A6C G93A	-1.25

Variant	polymerase ribozyme fitness (log ratio)
A5U C8A	0.0555
A5U G39U G45U C82A C123A	-2.8
A5U G71C U106G	-3.95
A6C G10A C13U G36U G51U G77C A90C G120U	-4.97
A5U C13A C15G C56A A121U	-1.44
A5U U14C A50U C72A C124A U131G	-1.27
A5U G39U G47C C72U	-4.21
A5U C11A G42C G63A C88U U106A A121C U125A	-5.18
A5U C11A G42C C88U U106A A121C U125A	-1.65
A6G C8A U55A C62A	-0.384
A6C C70G	-2.95
A6C C70U	-0.65
A5U C49A A95G	-0.603
A5U G51U G77U	-4.52
A5U G57A C70U	-1.67
A6G C8G G69U	0.471
A5U U87G	-0.121
A5U U87A	-0.245
A5U G48U C56U G93A	-0.937
A6G C11G C70G A118U	-1.53
A5U G44U C72A A91C G113C U126G G128A	-5.74
A6G C15U C56U G69U U112A G117A	-1.54
A6C C11G C40U C123U	0.00495
A6G C28G C115G U125G	-3.74

Variant	polymerase ribozyme fitness (log ratio)
A5U C11G C64U U78C U126C	-0.928
A6C A83C C97U G110A	-1.92
A6G C80U C115G	-1.33
A6G C62U C73U U112G	0.725
A6C G52C	-0.394
A6C U7A C8A A29C U55A C88G C94U	-2.74
A6C G42U C79U A90C	-0.731
A6G C40U G51U	-4.1
A5U C8G G63U	-0.752
A6C A37U G47U G52U G63C C124U	-4.06
A6C G10A A37G G77A C79U C124A	-0.0414
A5U U7A C40G U55G C56U G60A	-3.04
A6G A46U	-1.37
A5U A43U G63A	-3.99
A6C A27G C49U C79A U81A	-6.28
A6C U81C U87G	-0.0503
A6G C97U	-0.751
A6C G45A	-2.73
A6C C97A	-4.04
A5U G69U A91C G113A U116C U130C	-5.42
A6C C104A	-1.61
A6C C40U G107U C124U	-4.44
A6C G47U G69C C85A	-4.06
